Measured values: PMC10214136 (Proceedings of the National Academy of Sciences of the …, 2023)
Residue numbers refer to the chain shown, from its start. In names and notes the source's numbering stands. Read-outs that look alike come from different tables or passages of the source.

Experiments:
[1] = target: FtsEX complex (Pseudomonas aeruginosa), wild type, in peptidiscs (Pseudomonas aeruginosa); assay: cryo-EM structure
[2] = substrate: Nc1ncnc2c1ncn2[C@@H]1O[C@H](COP(=O)(O)OP(=O)(O)OP(=O)(O)O)[C@@H](O)[C@H]1O; assay: purified protein; conditions: ATP/MgCl2, pH 7.5, 37 °C, FtsEX in peptidiscs with EnvC
[3] = target: the molecule itself; assay: cryo-EM structure
[4] = target: T1, FtsE (Pseudomonas aeruginosa), wild type (Pseudomonas aeruginosa, UniProt A0A069QBX1 1-223); assay: co-purification
T1 sequence: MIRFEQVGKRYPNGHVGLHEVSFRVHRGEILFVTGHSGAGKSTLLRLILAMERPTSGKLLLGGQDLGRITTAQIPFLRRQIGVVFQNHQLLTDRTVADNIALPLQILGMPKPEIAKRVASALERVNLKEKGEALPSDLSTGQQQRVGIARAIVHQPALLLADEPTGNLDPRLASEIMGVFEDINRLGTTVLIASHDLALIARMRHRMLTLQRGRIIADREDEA

[5] = target: the molecule itself; assay: cryo-EM structure; remark: listed apart in the source
[6] = target: FtsE^E163QX–EnvC complex (Pseudomonas aeruginosa) (Pseudomonas aeruginosa); assay: cryo-EM structure

EnvC (Pseudomonas aeruginosa), envC^Δ19 construct, wild type (natural protein)
stoichiometry N (EnvC per FtsE2-FtsX2 complex) [1]: 1

B1: FtsEX/EnvC (FtsEX–EnvC complex) (Pseudomonas aeruginosa PAO1) (protein)
chain: T1 sequence
Km [2]: 230 µM

B2: FtsE^E163Q (Pseudomonas aeruginosa) (natural protein)
chain: T1 sequence with E163Q
stoichiometry N [3]: 2

B3: FtsX (Pseudomonas aeruginosa) (natural protein)
chain: MSANDLPRGPEEGAPERKTREKPSQEQTDWSGSFSAYLESHRASLVDSLRRLFGHPFGSFFTCLVMGITLSLPMGLSLLLNNVERLGGSWQRAAQISLFLDLKTSENQGQDLREQIERLPDVIEAQLISREQALSELQEQSGLGEALKELPENPLPPVISVTPKQIDRAGLEALRQQLAELPHVQQAQLDLVWVERLSAILKLGERFVFGLTILLVLTLLLVVGNTIRLHIENRRNEIEVIKLVGGTDGYVRRPFLYMGALYGLGAGILSWALLAYSLNWLNGSVVNLSGLYGSDFGLQGVPLDDGLSLTVGAVLLGWVGAWLAVARHLRELAPR
stoichiometry N [4]: 1 FtsE:FtsX molar ratio | stoichiometry N [5]: 2

B4: AmiB (Pseudomonas aeruginosa), amiB^Δ29 construct (enzyme)
chain: SLLQAHLSHRSALRSRFRFDPAAVMDCLRAEVLGQDPALQAVEDMLKVVRADIADPRRPLFSALFLGPTGVGKTEIVRALARALHGDAEGFCRVDMNTLSQEHYAAALTGAPPGYVGAKEGTTLLEQDKLDGSPGRPGIVLFDELEKASPEVVHALLNVLDNGLLRVASGERTYHFRNTLVFMTSNLCAHEIQRYDERRQRLPWRLLPVGGERRRRDIDGMVRARLLKTFSPEFVNRLDSVVTFNWIERDVVARLVELEVQRLNRRLEKHRCRLEATPEVLAKIARAGFDRQFGARALRRSVRHHLEVPLAEHLLDHHQPGDGNCTTYLASLEHERVRFVRR
stoichiometry N (AmiB per FtsE2-FtsX2-EnvC complex) [6]: 1
